Format in all cases: biochemical, Quillaja saponaria
Assay [1] in a line: Experiment 5-1: screening of additional glucosidases for deglycosylation with purified QS-18 (0.04 mg/ml) at pH 7.5 and 30 deg C. Conditions: pH 7.5, 30 degrees C, 18 hours, LCMS/MS. How it is done: The 94 additional genes, together with positive control (DNA encoding SEQ ID No. 262) and negative control, were transformed, expressed, lysed and reacted in the same manner as described above for Experiment 4-1, except the reaction was incubated at 30 degrees C. for 18 hours.
Samples were analysed by LCMS/MS according to the procedure in Experiment 4-1.

Assay [2] in a line: Experiment 5-2: screening of additional glucosidases for deglycosylation with QS-18 in crude bark extract (80%) at pH 6 and 35 deg C. Conditions: CBE 80%, pH 6, 35 deg C, 18 hours; UV HPLC. A digest of the protocol:
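Deglycosylation of QS-18 was monitored by UV HPLC after MeCN/AcOH quench with hexanophenone. The reaction ran 18 hours at 35 deg C, shaking, combining clarified pH 6 lysate with crude bark extract neutralised to pH 6 by NaOH.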

The nature of assay [3]: Experiment 5-3: screening of additional glucosidases for deglycosylation with QS-18 in treated bark extract (80%) at pH 6 and 35 deg C. Conditions: TBE 80% (QS-21 approx. 4 g/L), pH 6, 35 deg C; UV HPLC. On the procedure:
Experiment 5-1 was repeated, replacing CBE with Treated Bark Extract (TBE) at pH 6. TBE was prepared from CBE by PVPP treatment and concentration, to provide TBE with a QS-21 concentration of approximately 4 g/L. TBE was adjusted to pH 6 by dropwise addition of 2M NaOH with stirring.

Where only a bound is given, the exact number is not on record here.

B1: 864 (protein, listed as Stagonospora sp.)
chain: MPYKVNDESREGEGLNALLGALTLDEKISLLSAKNIWETPEVERVGIPSLKVTDGPNGARGGEFFDGTTAACFPACVSLAATFDRALSRQVGRALGQEAITKGAYVVLGPTVCCHRSPLGGRNFEAFSEDPVLSGALASEYVKGLQEERVAATVKHFLANEQDTRRFSVDQTISERALREIYLKPFEIVAKQADPWCFMSSYPKINGKHVDAQSKFLIDILRKEWGYEGMVMSDWGAASTVEGIKYGLDMEMPGPPRQREANLVRNAVKKGQISEGDIDARVLSTLNLLKKVGKFSDRKDTPKEQAIDRPEHRALIRKAGREGIVLLKNQNNILPIDIKKTQKVALLGPLAKYAAAHGGGSASLNCHYKITPYDAFTERLGKDVEITHSKGAHIFRVYPDLDAGCKNAHGNVGFLAEYFMEGDIEPSSVPFRIEEFPRGSFNTLMNTNVTGCKSVRFTTTYRPPVTGKHYLSFSGLGPSHLSINGVMVAEQKNSTKDAMSFFLGVQEEERVQFDFDAAKTYDLIMETHPSPTNNAELYLMEGQTSIHLGFIAQAEMEQDVLAEAVDLAKDADLAIVFVGNTTQWETEGQDLSSMTLPADGSQDNLIASVVAANPKTIVVNTTGVPVELPWLDDVPAFLQAWYAGQETGNAILDVLLGEMSPSGKLPISWPKKYEHTGCYGNFGLDSFDSRKVEYVEGVFVGYRWFDRQWGHDKEVRFPFGYGLSYTEFSITDTRISGSIANDKNARVTVAANVKNVGSMSGSEILQVYLEPPVEEGIDRPVKGLVGFVKVELQPKEEKTVEVVFARDAAAFWDEAANEWAVSMGLHHIVVATSAAPVDIKARLELHVENAFKFDP
With B1, the “Experiment 5-1 % conv” value in assay [1] came to 3.9%. Moreover, the “Experiment 5-2 % conv” value in assay [2] is listed as less than 0.5%. Moreover, in assay [3], the “Experiment 5-3 % conv” value is listed as less than 0.5%.

B2: 862 (protein, listed as Bifidobacterium thermacidophilum)
chain: MDATTGTNKAPAPAQARQGNGRGGNEGRNASEIRHRVDDLTLEQKASLTSGADAWHVQGIDECGIPGYMITDGPHGLRKARPAEEQKTGLGDAVPVTCFPPAAGLSSSWDPGLVREVGEAMGEECIQEKVAVILGPAVNIKRNPLGGRCFEYWSEDPFLAGHEAVGIVEGVQSKGVGTSLKHFAANNQETDRLRISATISPRALREIYLPAFEYIVKTAQPWTVMCSYNRINGVHSAQNRWLLTDVLRREWGFQGIVMSDWGADHDRVASLNAGLNLEMPPSGTDDQIVAAVRDGRIAPEQLDSMAQGMIDLVAKAQPAMSRDGYRYDRDRHYDIARRAARESMVLLKNEQGTLPVRPGVRVAVIGEFARTARYQGGGSSHITPDRMSSFLDATARRGEQVDFAPGFTLDLDPADPVLEAQAIETARHADIVLMFMGLPEAAESEGFDRTSLDIPAKQTSLLHKISAVNPHVAVILSNGSVVSVAPWCDDAQAILESWLLGEAGGDALADVVFGDVSPSGKLAQTIPLDINDDPTMLNWPGEEGHVDYGEGVFVGYRYYDTYRKPVAYPFGFGLSYATFDVHDARVRRLGVDDAARVAAERAAGDAAQGNDVARADGAAHVDGACGAVVRVDATVTNTSDAPGAQVVEIYVAPGKSQVARPVHELKGFARVDLAPGESKAVSITLDERAFAYWSQRFDDWHVEAGDYTVEVGTSSRDIVARIPAHLDGDGKTMPLDEWSTFGEWAADPVGARVVEAVGREADQGRLPRLPQNGVMRIFLMAAPVNSLQMILGEEGLEVARFMLDEYRRIRG
In the case of B2, in assay [1], the “Experiment 5-1 % conv” value was determined as 4.2%. Also, in assay [2], the “Experiment 5-2 % conv” value is recorded as less than 0.5%. Also, the “Experiment 5-3 % conv” value in assay [3] is on record as less than 0.5%.

B3: 809 (protein, listed as Rhodococcus erythropolis)
chain: MELTAATGRNDVTENYVDGLSLEEKASLTSGSDFWHSQSVAGIESILLTDGPHGVRKQPEGGDALGLGHSIPATCFPPAVGLGSSWNLDLIRQVGEALGDEAKAEQVSVLLGPGINIKRSPLCGRNFEYVSEDPFLSGRVAAALITGIQSRGVGTSLKHFAANNQEHDRMRVSADVDERTLREIYLAGFEYAVKTAAPTTVMCSYNKINGVYSSQNHWLLTEVLREQWGFDGLVVSDWGAVNDRVAALAAGLDLEMPPTGTDTQIVDAVRGGDLDESVLTTAAERLSTLVKRTAAARTEGHTYDVERHHELARTAAAESAVLLANDGELLPLTPGGQTVAVIGEFACSPRYQGAGSSQVVPTKLDNALDAILDLEGADRVTFAPGFTFDGTPDDHMVTEAVDAARRADVAVLFLGLPSATESEGFDRTDIELPADQIALLEAVHGANPNTVVVLANGGVVSIEPWKDHAAAILEGWLLGQAGGSAIADLLFGITNPSGRLTETIPLRLQDNPSYLHFPGSQQHVRYGEGLYVGYRYYDSALREVAYPFGFGLSYTTFDITDTSVDAGKNSAEVTVTVRNSGDRSGSTVVQVYVHDASASIDRPAQELKGFAKVHLDPDESATVTITLDTRAFAYWSVAAQDWAIEPGDYEIRVGFSSRDIATTDTITLAGNVGVGTLDAMSTIGEWLAHPVGSAVLGAAMAAAAGDGAQAVSPEMMALAGSMPLGKLATFGLGITEEQVAQLVAAAAQPGS
Take B3: the “Experiment 5-1 % conv” value in assay [1] is listed as 6.3%. Further, the “Experiment 5-2 % conv” value in assay [2] was less than 0.5%. For the same molecule, the “Experiment 5-3 % conv” value in assay [3] is less than 0.5%.

B4: 848 (protein)
chain: MTLEEKVSMVAGADAWHSTGVERLGIPAIKVTDGPNGARGGDFGGGVGSACFPVGVCLGSTWNTALIERVGQALGQEVQSKQAHILLAPTVNIHRSPLNGRNFECYSEDPYLTARIAAAYITGVQKQGVGACIKHFVCNDSEFERHSISSEVGERALREIYLPPSETAVREAGVWAVMSAYNKLNGTYCSENPYTLLEILKGEWGFEGIVISDWGGTYSTVEAAANGLDLEMPGPARWMGEKLLQAMRDGQVSGPKKLGEAVDDKVRRLLWTIEKAGAQLGPEPPEQAIDRPEHRALIRQAAGEGIVLLKNDGVLPLDGARVKRIAVIGPNAAEAKIMGGGSAQVKAHYAVSPLDGIRARAGEAVDVQCALGCTNYREIPELKTEWLTPVGGGESGWTVAYYNNLDLAGDPVRAETTDRTRMMWFGQVAPGVDRECFSARLSGTLTVPQSGTYTLSLNSAGVSRIAIDGELVLDNWTDYRPSRGPFDRDRKVPTAEVELTAGQGYTFVVEYSKQQSPRFAMLRVGCLPAQPADLMERAVQAAAKADVALVFIGTSGEWESEGFDRPDMELPGRQVELLEAVAAANPNTVAVLNTGSPVSVRWLDKVAALVEAWFPGQECGNAIADVLFGDVNPSGRLSQTWPVRLQDNPAYINYPGENGRVLYGEGLFVGYRYYEKKQIEPRFPFGHGLSYTTFEYGALRLQSEYTLGEPIAVSVDVTNTGPVAGQEVVQLYVRDEESSLVRPEKELKAFAKLALEPGETQTVTLTLDERALSFYDDAKAGWVAEAGEFTVLVGASSRDIRCTARFTLTVPPDRS
modifications: uncultured microorganism
With B4, in assay [1], the “Experiment 5-1 % conv” value was 3.8%. The “Experiment 5-2 % conv” value in assay [2] was less than 0.5%. Besides, the “Experiment 5-3 % conv” value in assay [3] is reported as less than 0.5%.

B5: 875 (protein, listed as Exophiala spinifera)
chain: MGSYSGSQQGFESIISGLTVEEKATLLSGADFWTTSPVTRVGIPALKVSDGPNGARGGHFQGKTTSACFPASVSLAASFDREFAYKIGRALGQETKTKGAHVLLGPTVCHHRDPRGGRNFESFSEDPLLAGELASEWIAGLQSEGVGATVKHYAVNEQETRRFTIDARVDQRALREIYLKPFEIAVKRADPWAIMTSYNLVNGKHADEHKELITDILRGQWGFKGLVMSDWGGTNSVAPSLNAGHDLEMPGPPLKRTVDNIQRALQTGELTEDTLNQRVGNVLKLLQRAGKFENPEIAEEQAVDLPEHRSLIRQAAAESMVLLKNTNNILPLKSTNTKSIALLGLAREYLGHGGGSASVNSHHKVTAYEALQAAVGSSVQLNYAEGARIVRNLSPLSENVYNEEGVPGFTMKTFSKLNGDNPTVSTVPSSVYRTLEPSSIDQMTLLGTFKPKTSGLHYISLSTLGGTRVYINDELVFDYSNSQTTDIMAFLIGSPGEDKKRYLFTAGESYRIRIEAKATKDTISGFSLFTKEAIGFSLGFALESEHDADLLTAAIEAAKSSDVAVVFVGHTPIWESEGADRSGMDLPKDGSLDALVVAAAKVNPNTVVVNSTGSAISMPWIEDVAAVVQAWFPGQEAGHSIADVLLGKVTPSGKLPVTFPRAITDVPSYENFPGDIKNEVVHYKESIYTGYRHFDRRPEGVLFPFGFGLSYTTFDVVVTSVSRTKLRNHETLTVSADVTNTGTTEGAEVVQVYVGAGEGTSAIDRPAKELAGFAKVHLRPGEARKVAITFGRDSVAYWNESRDKWSVDKGAYTIYVGTSSVDIAGKLEVEVPEAFDFDP
Regarding B5, the “Experiment 5-1 % conv” value in assay [1] came to 4.7%. Also, the “Experiment 5-2 % conv” value in assay [2] is less than 0.5%. In assay [3], the “Experiment 5-3 % conv” value is reported as less than 0.5%.

B6: 883 (protein, listed as Salinispira pacifica)
chain: MKSIQEIRSSLTLEEKASLCSGKDFWNLKSFESKGVPAIMVADGPHGLRKQMESSADHIGIGGSVPATCFPTASAMASSWDTQLLNEVGNALGEECRQEHVAVLLGPGVNIKRSPLCGRNFEYFSEDPYLGGKLAASLIRGVQSMGVGTSLKHFAANNQERRRMIIDAVVDERALRELYLAGFETAVKESSPKTVMCAYNKLNGAFCSENHRLLSEILKEEWGFEGFVVTDWGAVNDRVAGLNAGLDLEMPASGGYNDNLMVEAVQNGTLSENSLNDAVDRILKVVLETHTALQEEFTYDAAAHHRLAQKAESESAVLLKNDKLFPLNSEDFRTEEKHGSQEHKSPKLALIGSFAKEPRYQGSGSSLINPRQLDSAYDAISRELGGDMQLLYAPGYDPADEEPDSRLIQEAVNTAAAADTVIVFAGLPEISESEGFDREHLSMPRSHNDLISAVAQVNPRTAVVLSNGSPVTMPWLDSVPAVLESYLGGQAWGSAISDIIFGRANPSGKLAETFPLSLQDVPSSAQFPGGSASVVYTDSLYVGYRYFSGTGKPVLFPFGHGLSYTRFSYDGLKITGRGTGRTVQCRITNTGSRDGKEVIQLYVHSESSSVFRPEQELKGFSKVSLAPGEEKTVEFRLDDRSFAYWDPGAGDWMVESGNYEIRIAASSADIRLRETIRIDSTQTPSQWAADLRNRIPEFFSPAPELFHDISPESPFRKLLGRPIPPPHWDTREGFTRNSTLEETTRTFIGRILYKAVMREGSRMMSQDADEKSIAMMQAVIREMPLKNLGMMGGDKISMHTVDSLILLLNGKIIRGLGSLLRRK
B6: the “Experiment 5-1 % conv” value in assay [1] stood at 7.0%. The “Experiment 5-2 % conv” value in assay [2] is on record as less than 0.5%. Further, in assay [3], the “Experiment 5-3 % conv” value is less than 0.5%.

These data come from patent publication US20240026407A1, “MODIFICATION OF SAPONINS” (GLAXOSMITHKLINE BIOLOGICALS SA, priority 2020, published 2024).
